Results: patent US20160361443A1, “Ultrasound Molecular Imaging With Targeted Biocompatible Microbubbles” (University of Pittsburgh - Of the Commonwealth System of …, priority 2015, published 2016)
Values belong to the substance of their own block, whether it stands above or below them. Where no end group is shown, it is not given here.

Experiments:
[1] = target: rat E-selectin on inflamed (IL-1β-activated) rat heart microvascular endothelial cells / inflamed or post-ischemic rat endothelium (rat) (UniProt P98105); assay: parallel plate flow system, normal cultured rat ECs; control microbubble
[2] = target: rat E-selectin on inflamed (IL-1β-activated) rat heart microvascular endothelial cells / inflamed or post-ischemic rat endothelium (rat) (UniProt P98105); assay: cell-based or functional assay
[3] = target: rat E-selectin on inflamed (IL-1β-activated) rat heart microvascular endothelial cells / inflamed or post-ischemic rat endothelium (rat) (UniProt P98105); assay: parallel plate perfusion chamber, inflamed rat heart microvascular ECs; control microbubble
[4] = target: rat E-selectin on inflamed (IL-1β-activated) rat heart microvascular endothelial cells / inflamed or post-ischemic rat endothelium (rat) (UniProt P98105); assay: parallel plate flow system, activated cultured rat ECs; control microbubble
[5] = system: ICAM; assay: RT-qPCR of heart after LPS injection, ICAM mRNA; format: in vivo, rat; details: 4 hours post LPS injection
Method: (§1) Wistar Rats were intraperitoneally injected with lipopolysaccharide (LPS) in normal saline (dose: 1 mg/kg) to induce systemic inflammation. Four hours post-injection, rats were anesthetized and intubated.
(§2) LPS treated and untreated (i.e., baseline) hearts were harvested. RNA extraction and reverse transcriptase real-time quantitative polymerase chain reaction (RT-qPCR) for E-selectin, ICAM and glyceraldehyde 3-phosphate dehydrogenase (GAPDH, a house keeping gene) in the heart were performed. E-selectin and ICAM mRNA expression level were expressed as percent of GAPDH.

[6] = system: E-selectin; assay: RT-qPCR of heart after LPS injection, E-selectin mRNA; format: in vivo, rat; details: 4 hours post LPS injection
Method: as §1, §2

[7] = target: T1, human E-selectin (Homo sapiens, UniProt P16581); details: static and flow-cell assays; cited from earlier work
T1 sequence (P16581 22-610): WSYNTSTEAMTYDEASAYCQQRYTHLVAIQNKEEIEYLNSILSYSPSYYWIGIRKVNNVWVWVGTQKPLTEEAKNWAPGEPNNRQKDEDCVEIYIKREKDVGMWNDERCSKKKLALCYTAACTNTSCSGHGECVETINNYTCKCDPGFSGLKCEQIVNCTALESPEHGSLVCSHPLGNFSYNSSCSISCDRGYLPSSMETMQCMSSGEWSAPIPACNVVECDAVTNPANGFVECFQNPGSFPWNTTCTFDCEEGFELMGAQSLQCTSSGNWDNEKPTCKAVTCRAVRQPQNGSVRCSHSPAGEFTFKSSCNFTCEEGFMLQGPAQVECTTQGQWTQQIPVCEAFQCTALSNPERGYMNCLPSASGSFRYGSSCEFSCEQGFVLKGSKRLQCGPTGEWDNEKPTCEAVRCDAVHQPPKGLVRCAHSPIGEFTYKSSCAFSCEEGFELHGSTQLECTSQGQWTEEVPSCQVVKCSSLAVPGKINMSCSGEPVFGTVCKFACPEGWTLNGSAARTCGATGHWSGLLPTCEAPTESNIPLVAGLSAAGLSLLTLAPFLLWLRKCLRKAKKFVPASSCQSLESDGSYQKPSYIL

[8] = target: T1, human E-selectin; details: cited from earlier work
[9] = target: T2, E-selectin (Rattus norvegicus, UniProt P98105); assay: Ultrasound molecular imaging with targeted MB (Mal) in LPS rat inflammation model; format: in vivo; details: 2×10^7 MB
T2 construct: Immunofluorescent staining in all rats consistently confirmed microvascular E-selectin and ICAM-1 expression in postischemic myocardium; from tissue
T2 sequence (P98105 22-549): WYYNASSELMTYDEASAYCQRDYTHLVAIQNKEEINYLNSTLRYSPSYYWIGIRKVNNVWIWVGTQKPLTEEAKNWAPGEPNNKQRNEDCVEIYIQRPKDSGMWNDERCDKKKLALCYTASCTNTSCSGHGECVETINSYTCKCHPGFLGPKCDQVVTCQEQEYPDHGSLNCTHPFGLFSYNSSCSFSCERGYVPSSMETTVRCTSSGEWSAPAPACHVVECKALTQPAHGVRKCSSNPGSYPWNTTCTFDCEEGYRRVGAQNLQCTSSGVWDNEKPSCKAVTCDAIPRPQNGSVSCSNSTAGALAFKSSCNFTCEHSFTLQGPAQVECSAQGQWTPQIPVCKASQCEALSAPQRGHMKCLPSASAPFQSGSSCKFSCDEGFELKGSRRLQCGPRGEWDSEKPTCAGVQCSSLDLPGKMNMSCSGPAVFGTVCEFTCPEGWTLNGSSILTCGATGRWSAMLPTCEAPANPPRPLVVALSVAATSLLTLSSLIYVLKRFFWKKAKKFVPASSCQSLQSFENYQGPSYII
Method: FIG. 26 presents exemplary data comparing myocardial retention of microbubble populations (2×10^7) either with, or without, a targeting ligand in an LPS rat inflammation model. The data were linearized and a two-phase washout model was fitted to obtain the retained MB concentration in the myocardium.
as §1
Each rat received intravenous injection of targeted MB Esel(MAL) and control MB IgG in random order (2×10^7 MB in 200 μL saline followed by a 200 μL saline flush). Baseline contrast ultrasound images were obtained before each microbubble injection and intermittent contrast ultrasound imaging were performed for 20 min to monitor the adhesion dynamics of MB in the myocardium. Acuson Sequoia 512 clinical ultrasound system (Siemens, Mountain View, Calif.) with a 15 L8 linear array transducer was used for imaging in CPS mode at 7 MHz.
Microbubble (MB) signals in the anterior myocardium and in the left ventricular cavity were also analyzed. […] Signal intensity was linearized and a two-phase washout model
was used to calculate the amount of MB retention in the myocardium.

[10] = system: E-selectin; assay: TNF-α induced E-selectin upregulation in HUVEC cells (immunostaining, electrophoresis gel); format: cell-based, human; details: TNFα 20 ng/mL for 4 hr vs without TNFα
Source text: FIG. 24 presents exempary data of TNF-α induced E-selectin upregulation by immunostaining of HUVEC cells.

adherent microbubbles per endothelial cell (MB/EC) [1]: 2 MB/EC | adherent microbubbles per field, intravital microscopy of TNF-α-inflamed rat cremaster microcirculation (control microbubble) [2]: 1.1 MBs/field | background-subtracted videointensity, postischemic LAD bed (control microbubble) [2]: 1.7 dB | myocardial videointensity, post-ischemic bed (control microbubble) [2]: 2 dB | adherent microbubbles per endothelial cell (MB/EC) [3]: 2.3 MB/EC | adherent microbubbles per endothelial cell (MB/EC) [4]: 2 MB/EC
Substance: MBIgG: polymer/albumin double-shell microbubble bearing rat biotinylated immunoglobulin G (non-specific IgG, BD Biosciences) via biotin-streptavidin bridging (antibody)

Substance: lipopolysaccharide [LPS]
ICAM mRNA expression [5]: 6.09±3.14 % of GAPDH | Esel mRNA expression [6]: 2.28±1.32 % of GAPDH

Substance: H2NDITWDQLWDLMK-COOH (H-DITWDQLWDLMK-OH) [AF10166]
Neutrophil adhesion [7]: blocks neutrophil adhesion | Kd value ([8]; believed, from phage display library screening): low nanomolar range | IC50 [8]: 4.4 nM

Myocardial MB concentration, more as compared with control IgG MB injection ([9]; 6 minutes post-injection, 4 h post LPS 1 mg/kg): 185% | Retained MB in the myocardium (Ar term) as compared with control MB injection ([9]; two-phase washout model fit, 4 h post LPS): 330%
Substance: targeted MB: Polymer microbubble conjugated to E-selectin targeting peptide by thioether bond (maleimide-thiol chemistry) (CDITWDQLWDLMK; not fully specified (residue 1); also: N-terminal Cys thioether to maleimide linker BM(PEG)3 on microbubble shell)

Substance: TNFα
E-selectin expression (in words) [10]: significant upregulation
